Test results from the DeepSol protein solubility set.

assay: soluble on expression in E. coli; label from the status in PepcDB or PDB records

Soluble on expression in E. coli, soluble:
MPNNETEASMRNTLFPTLKWSLLVLMTSLLTACGFHLRGDYDIPQELSRMSLTSYDQYSTFTRMVHRQLRLNKIDLQAPAEDLPNLHLLSESTGERTLSLYQNTRAAEIELTFVASYRVTVPELGSRTFTTSVTRSYLDNPLTALAKSVERDMIEDEMRKLAASQIVRQMARLKADFARKTLDDESIEGKGITDYRVDTQEVANPVSTEGSSELEHHHHHH
MDNRVREACQYISDHLADSNFDIASVAQHVCLSPSRLSHLFRQQLGISVLSWREDQRISQAKLLLSTTRMPIATVGRNVGFDDQLYFSRVFKKCTGASPSEFRAGCE
MKRLSLREAWPYLKDLQQDPLAVLLEWGRAHPRLFLPLPRFPLALIFDPEGVEGALLAEGTTKATFQYRALSRLTGRGLLTDWGKSWKEARKALKDPFLPKSVRGYREAMEEEAWAFFGEWRGEERDLDHEMLALSLRLLGRALFGKPLSPSLAEHALKALDRIMAQTRSPLALLDLAAEARFRKDRGALYREAEALIVHPPLSHLPRERALSEAVTLLVAGHETVASALTWSFLLLSHRPDWQKRVAESEEAALAAFQEALRLYPPAWILTRRLERPLLLGEDRLPQGTTLVLSPYVTQRLYFPEGEAFQPERFLAERGTPSGRYFPFGLGQRLCLGRDFALLEGPIVLRAFFRRFRLDPLPFPRVLAQVTLRPEGGLPARPREGVRA
MSLDRLIHWYNMAVYPSIFATMLPVDPRRALGAFLRSHRERLPPPPLALGRRRTPGWRREELAEACGVSLTWITWLEQGRDVSASPHALARLAEALHLAPAERGYLFELAGRRDPVSPVASDDGIPPAVLALPGHMNVPAYLLDRTWTARAWNSAASRLFTGWLDGDHDRNLLRFIFLSPAAPRLIADWDQRAHRVVAEFRADFSRRLRDPALQALVESLAAQSQAFRTLWHEQAVLDREGGERSFLNPARRFHQSTLILAANADIKLVSLVPMDGEEFEGHHHHHH
ASGSDENDVVIIGGGPGGYVAAIKAAQLGFKTTCIEKRGALGGTCLNVGCIPSKALLHSSHMYHEAKHSFANHGVKVSNVEIDLAAMMGQKDKAVSNLTRGIEGLFKKNKVTYVKGYGKFVSPSEISVDTIEGENTVVKGKHIIIATGSDVKSLPGVTIDEKKIVSSTGALALSEIPKKLVVIGAGYIGLEMGSVWGRIGSEVTVVEFASEIVPTMDAEIRKQFQRSLEKQGMKFKLKTKVVGVDTSGDGVKLTVEPSAGGEQTIIEADVVLVSAGRTPFTSGLNLDKIGVETDKLGRILVNERFSTNVSGVYAIGDVIPGPMLAHKAEEDGVACVEYLAGKVGHVDYDKVPGVVYTNPEVASVGKTEEQVKETGVEYRVGKFPFMANSRAKAIDNAEGLVKIIAEKETDKILGVHIMAPNAGELIHEAAIALQYDASSEDIARVCHAHPTMSEAIKEAAMATYDKPIHI
MSLVEELLKITLKSDELHRRLGGGIPAGTIMLIEGDRGTGKSILSQRLLYGFLMNGYTSSYVSSQYTTVEYIKQMMSISYDVIPFLIRKKLVFVSLYPLLSGVSEERKFLSRLLGEPRLWDQDVVIIDSFSSVLSREQDVRAVRNFLMYIKKLSSLGKVIILTANPEELSRDVMFLLEEASTLLIRLNVRVFGGDLKNSATIVKYNNAKGAFQKIIPFRVEPKVGLVVEIAAVVEGHHHHHH
SAPALLTAAQRTMLAQVGACNSHLTSDENMAINELRLHKPRLPKDTWFFTDPNKDPDDVVTYTLGKQLQAEGFVHITDVVATLGDAEVRSQRAEMAKGVFNKLGLHDVHVSRGRDYAMNSLQSKEHAKFLLEGHALRAGPGEIHRDSLQDMSRRLARAPHGVGIVVIAGMSDINALITTCPDMVRERVDDITIMGGVEPLKDADGFVQPDARAYNNATDMDAARSLYRKAQELGIPLRIVTKEAAYKTAVSPSFYEGIAGSGHPVGHYLRDVQKSALKGLWEGIQAGLLPGLDDSWFFRTFMPNAQIEAAQLDKNKESSFEDIWPKVTKLNLYDPLTLLASVPGAAKLLFKPKAIHTEGFGVVEQVGPDDVTHPEKAKLLMSALAKSALVQSTVAPD
DYKDIVLTQSHKFMSTSVGDRVSITCKASQDVGTAVAWYQQKPGQSPKLLIYWASTRHTGVPDRFTGSGSGTDFTLTISNVQSEDLADYFCQQYSSYPLTFGAGTKLELKRGGGGSGGGGSGGGGSGGGGSQVQLQESGGELVRPGASVKLSCKASGYTFTSYWINWVKQRPGQGLEWIGNIYPSDSYTNYNQKFKDKATLTVDKSSSTAYMQLSSLTSEDSAVYFCARWGYWGQGTLVTVSAASGAHHHHH

Soluble on expression in E. coli, not soluble:
MGSDKIHHHHHHVSRSVSIYVCQSCGAQTRQFFGRCNNCGEWNSIIEEKINQKSDKSIYTKINSPKEKSPYRSELISQTKNQLIERISSGYKELDRVLGGGLVPGSLVLIGGDPGIGKSTLILQSATEMAHHKSVLYVAAEESAQQVKLRWNRIEDAESNLHLLAETDLEMVIKELDHLKPEVAVIDSIQALHDQSLSSSPGSVAQVRECSAALQQIAKRQNISLLIIGHVTKDGMLAGPKVLEHLVDAVLTFEGDRFASHRLLRGVKNRFGATSELGVFEMQADGLSEVPNPSELFLSKTSAPGISTIVTCEGTRPLAIDIQALLNPTSYASPRRTTTGIEINRLHQILAVLEKNMNLSLSRYDCYLAVAGGLEVEEPGADLGIAAAIVSSLKDIELEEGVVFIGEIGLAGQLRLVRQMQQRINEVIRLGYKTLIIPDGIDTSEFETNQKLKILKASNINQALIYALDNN
MQLRKMQTIKKEPAPLDPTSSSDKMLLLNSALAEVAEDLASGEDLLLNEGSMGKNKSSACRRKREFIPDEKKDAMYWEKRRKNNEAAKRSREKRRLNDLVLENKLIALGEENATLKAELLSLKLKFGLISSTAYAQEIQKLSNSTAVYFQDYQTSKAAVSSFVDEHEPAMVAGSCISVIKHSPQSSLSDVSEVSSVEHTQESPAQGGCRSPENKFPVIKQEPVELESFAREAREERGTYSTSIYQSYMGSSFSTYSHSPPLLQVHGSTSNSPRTSEADEGVVGKSSDGEDEQQVPKGPIHSPVELQRVHATVVKVPEVNPSALPHKLRIKAKAMQVKVEALDSEFEGMQKLSSPADAIAKRHFDLEKHGTSGMAHSSLPPFSVQVTNIQDWSLKSEHWHHKELSSKTQSSFKTGVVEVKDGGYKVSEAENLYLKQGIANLSAEVVSLKRFIATQPISASDSR
MDKRLLKRLSAPLLAAALWTIPLHSHADTQPLTSQDTKLLTSQIVDQYAEHIFYNSGAVGMALVVIDNNQVVNRSFGETQPGNNIRPRPDSLIRIASITKLMTSEIMVKLADDGIVKLTDPLKKYAPKGVNVPSYSAKQPIRLLHLASHTSGLPREQPGGPQKRPVFTWPTKDNRWQWLKLAKVTVPPGVKAAYSNLAYDLLADALSRAAGKPYAHLLRDKITAPLGMKNTTLTPTAEQCKRLMIGVGSSRCGNTVAAAGSGGIYSTPEDMQHWMQQFLASDNSAPKRSAKREQALYFQRGDLVSLKGMDVAGQADALGLGWVYMAPKADLPGIMQKTGGGGGFITYMAMVPEKNIGVFVVVTRSQLTKFSNMSDGVNQLVAELVKNH
MAHHHHHHMRNLSDQFPVEDSPMNARRQMANGDDHSQRDSPMNHDVAHTYEGNTLDGHLTKAESASMTKTPTAAANGACANSAPSEYVVAKERLEAARAAHKQRLREIKDDKSLKIKSMPSLEELRDERVRLSEQVLHHKDEQDSLALDIEGLEGAAEVYQLAARVQRLEHFANRAYEYAEETLPRDIERTLEEDRQLSNRELCAYIQELQSKRANTLKKVVASQEGMVKRNLRKGATATTAALGEDADPMEAKAVAHTQENKDECVVLHQKIRRFCAMRTKLQSDILKEKSASKKMEERMCAAIRTAELANARDARMCGELNNRNAAATTNSQLLIDQLNVGHYGLGNAPSTKQLLEDRKAREALLETTETDQQQYGRFVSSGSLGSRQSYANSQSSHQRAIKPPLVASKPTAAQRARDDASRSSREEFAQMLRRNSDGNSYQASRSQSLSKPPLVASKPTASQQSRETALRGEREEVSVSRTVARSNSLFSDVRPPSLAAKSTASQRSRDRQ
MAVVAHTEEDVKLLARLMRAEAEGDGRLGMLMVGNVGVNRVIADCLDFRGIRSIRQMVFQSPGGFEAVQKGYFYQRAREVDIGLARQVLRGWRYHPATNALWFFKPPEGQECPPQWFNQWNVGRYKSHCFFAPTPSDCPRVY
MTNGIFKHSNQSILEDQDHVKKSTVEILMPAYVIGGPIRSIRVDKDRLFVLGMKNHPEVIDLTQMSHGTSLILEKIMSGNRYYTTQISMNQAAELCHVAHELKLVNLLKLVEMDMIRRPSTSMKHAVDALVLALKFGMLEAVNKLIDEIIFEFFNGLGLVGYCKSSTALEMIFDKNEMMLKEEIEVGRLNSEWNEPLPVGQEVVPSLPRGNNAQIPRIMLNVAKERIRSLVARPINSVKNGFAWISAQNLRRRGPRNHQDFPNFPD
MGSDKIHHHHHHMRDIHILHDLIKKQCPQIHQKRLNSLMVATESLLDGNQLSLTQLGRNITGSVAAKHNIKRIDRLLGNYHLAQDKITIYQWHARYLCGANPMPIILVDWSDVREQLRIMTLRASISVQGRSVTLYERTFLFEDYNAPRSHNAFLAELANVLPQGCCPLIVTDAGYRNTWFREVERYGWFWLGRVRGDVSFMHHGQTTWHSNKSLYSKANSTAKYIGNVQLARKSPLSCHLHLF
MGSDKIHHHHHHMKKYKNSLYVLALCGTMAACKPHIEEPSIDKGSLDVTKYVAVGNSITSGYADNALYYDGQQVSFANLLSGQFSKIGGGEFKQPLVSQTSVGVGSTGGARLKLALKTDCLGNTSLSPVPVAASGDLSIFGNIYSSAGPFNNMGVPGAKSVTTIYHGYGNPGNGLGKFNPFFTRMASNPATASILQDAMAQNPTFFTLFIGSNDVLLYALAGAANDSITPVAGGPGVGFDASMDAIVNTLVSGGAKGAIGNVPDITSLPYFTTVPYNGLVLTSQAQVDALNTAYTPFGITFHLGQNPFIIADAAAPGGRRQITSSEYVLLSVPQDSLKCNQWGSAKPIPNQYILTASEISNIRTAITNYNSKIKNLAAAHGLAFVDVNSFLMMAETGITYNGINLNTTFVSGGAFSLDGVHLTPIGNAMLANEFIKSINMTYGSTLPLIDATKYSGVKFP
MGHHHHHHSHMSGTEEAILGGRDSHPAAGGGSVLCFGQCQYTAEEYQAIQKALRQRLGPEYISSRMAGGGQKVCYIEGHRVINLANEMFGYNGWAHSITQQNVDFVDLNNGKFYVGVCAFVRVQLKDGSYHEDVGYGVSEGLKSKALSLEKARKEAVTDGLKRALRLPLLGVSGRILYSLFSVHSVMCAGGLPTPTASAQTAPSSPCSSAVLRYAQEFWECTWKLYSGQRLPEITK
MGRKKRLKVERKAVAENQSQILTMVTISETEMEKEKTYTALQKLKSVSNDLFEECQRVFANTSFCTAELENIVGCFDRYEKEISTIPDEYRTHPCVIKFQNCIRALCNVVAKKLNNTTRDVETQTNFQSPRITWRQRYWMPYLNK
